Data published in publication PMC8187647, “Low chorionic villous succinate accumulation associates with recurrent spontaneous abortion risk” (Nature Communications, 2021).

Tests used:
SDHC = molecular target: T1, SDHC (Homo sapiens, UniProt Q99643); assay: DARTS (Pronase proteolysis, western blot); format: binding; settings: 1 mM aspirin, 1 h; Pronase 1:2000, room temperature, 30 min
T1 construct: recombinant Flag-tagged SDHC, transient expression in HEK293T, anti-Flag M2 purified
T1 sequence (Q99643 30-169): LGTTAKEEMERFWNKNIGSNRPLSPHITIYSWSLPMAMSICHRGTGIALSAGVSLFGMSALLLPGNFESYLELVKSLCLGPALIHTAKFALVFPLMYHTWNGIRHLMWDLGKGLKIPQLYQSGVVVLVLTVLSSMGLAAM

SDHA = molecular target: T2, SDHA (Homo sapiens, UniProt P31040); assay: DARTS (Pronase proteolysis, western blot); format: binding; settings: 1 mM aspirin, 1 h; Pronase 1:2000, room temperature, 30 min
T2 construct: recombinant Flag-tagged SDHA, transient expression in HEK293T, anti-Flag M2 purified
T2 sequence (P31040 43-664): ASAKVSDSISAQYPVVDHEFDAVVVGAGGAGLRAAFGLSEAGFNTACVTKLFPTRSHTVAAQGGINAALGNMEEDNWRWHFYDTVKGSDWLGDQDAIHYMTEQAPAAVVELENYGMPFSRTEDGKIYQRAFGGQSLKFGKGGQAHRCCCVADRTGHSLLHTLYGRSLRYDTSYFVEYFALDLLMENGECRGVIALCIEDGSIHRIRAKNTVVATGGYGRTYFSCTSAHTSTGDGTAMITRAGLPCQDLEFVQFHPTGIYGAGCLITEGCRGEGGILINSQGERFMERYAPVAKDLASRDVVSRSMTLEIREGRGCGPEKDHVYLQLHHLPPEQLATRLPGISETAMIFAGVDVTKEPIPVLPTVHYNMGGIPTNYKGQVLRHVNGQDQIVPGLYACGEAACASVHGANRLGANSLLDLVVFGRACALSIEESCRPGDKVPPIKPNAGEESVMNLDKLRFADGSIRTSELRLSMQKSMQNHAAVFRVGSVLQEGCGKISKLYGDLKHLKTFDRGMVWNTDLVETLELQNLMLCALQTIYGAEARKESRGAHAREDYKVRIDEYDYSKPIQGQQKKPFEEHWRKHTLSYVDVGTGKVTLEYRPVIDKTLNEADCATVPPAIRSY

MBD1 = molecular target: T3, MBD1 (UniProt Q9UIS9 1-605); assay: EMSA; EMSA Kit (Invitrogen), buffer, salt and pH not stated; 15 °C, 30 min; 6% native polyacrylamide gel; settings: protein: recombinant; tags: His6 (pET22b)
T3 sequence: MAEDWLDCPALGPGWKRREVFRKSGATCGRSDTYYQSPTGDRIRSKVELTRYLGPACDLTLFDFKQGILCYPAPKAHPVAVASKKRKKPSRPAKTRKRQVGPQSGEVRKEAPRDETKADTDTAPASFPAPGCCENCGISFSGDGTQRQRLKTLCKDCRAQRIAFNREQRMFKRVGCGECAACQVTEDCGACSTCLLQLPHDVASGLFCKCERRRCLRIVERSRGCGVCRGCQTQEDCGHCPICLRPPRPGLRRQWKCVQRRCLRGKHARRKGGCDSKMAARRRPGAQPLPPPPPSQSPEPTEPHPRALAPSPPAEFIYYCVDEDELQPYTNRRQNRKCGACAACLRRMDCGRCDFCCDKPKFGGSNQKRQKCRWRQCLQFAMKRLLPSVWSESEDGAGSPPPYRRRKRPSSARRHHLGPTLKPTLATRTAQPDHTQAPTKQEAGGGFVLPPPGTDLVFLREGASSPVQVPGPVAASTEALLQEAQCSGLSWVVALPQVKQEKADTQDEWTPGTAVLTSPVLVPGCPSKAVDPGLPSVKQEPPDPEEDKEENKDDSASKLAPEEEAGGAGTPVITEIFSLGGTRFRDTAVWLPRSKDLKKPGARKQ

c-Fos = c-Fos (UniProt P01100 1-380); assay: as above; settings: protein: recombinant; tags: His6 (pET22b); chain copies: 2
c-Fos, sequence (P01100 whole entry): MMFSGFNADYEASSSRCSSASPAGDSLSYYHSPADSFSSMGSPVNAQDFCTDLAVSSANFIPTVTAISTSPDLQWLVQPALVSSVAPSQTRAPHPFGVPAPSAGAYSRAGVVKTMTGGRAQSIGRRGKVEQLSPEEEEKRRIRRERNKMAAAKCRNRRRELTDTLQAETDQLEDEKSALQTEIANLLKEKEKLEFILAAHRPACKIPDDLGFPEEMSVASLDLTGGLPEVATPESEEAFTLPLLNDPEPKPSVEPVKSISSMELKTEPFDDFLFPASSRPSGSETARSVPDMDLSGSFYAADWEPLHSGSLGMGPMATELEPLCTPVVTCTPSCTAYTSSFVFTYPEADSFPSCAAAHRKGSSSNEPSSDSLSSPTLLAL

CC(=O)Oc1ccccc1C(=O)O [aspirin]
DARTS (Pronase proteolysis, western blot) (SDHC): aspirin can specifically bind to SDHA and SDHC, but not SDHB and SDHD
DARTS (Pronase proteolysis, western blot) (SDHA): aspirin can specifically bind to SDHA and SDHC, but not SDHB and SDHD

B1: SDHB promoter -1172/-1165 CpG, methylated (dsDNA)
DNA 1: GGCAAGCTGCACGGTATGCGACAGAAAGGG
DNA 2: CCCTTTCTGTCGCATACCGTGCAGCTTGCC
modifications: 5mC at C12 and C19 of strand 1; methylation of the complement not stated
binding result (MBD1): binds

B2: SDHB promoter -1135 CpG, methylated (dsDNA)
DNA 1: ACTCAAGCCAGTAAGCGTCAGAGATGAATA
DNA 2: TATTCATCTCTGACGCTTACTGGCTTGAGT
modifications: 5mC at C16 of strand 1; methylation of the complement not stated
binding result (MBD1): binds

B3: SDHB promoter c-Fos binding region (dsDNA)
DNA 1: ACAGAAAGGGCTGACTCAAGCCAGTAAGCG
DNA 2: CGCTTACTGGCTTGAGTCAGCCCTTTCTGT
binding result (c-Fos): binds
